From patent US20250230248A1

Experiments:
human C1q (human) = human C1q (human) (UniProt P02745)
[1] = target: recombinant human CD32a (human) (UniProt P12318)
[2] = target: recombinant human CD16a (human) (UniProt P08637)
[3] = target: recombinant human CD64 (human) (UniProt P12314)
recombinant human CD64 (human), sequence (P12314 16-288 limits assumed): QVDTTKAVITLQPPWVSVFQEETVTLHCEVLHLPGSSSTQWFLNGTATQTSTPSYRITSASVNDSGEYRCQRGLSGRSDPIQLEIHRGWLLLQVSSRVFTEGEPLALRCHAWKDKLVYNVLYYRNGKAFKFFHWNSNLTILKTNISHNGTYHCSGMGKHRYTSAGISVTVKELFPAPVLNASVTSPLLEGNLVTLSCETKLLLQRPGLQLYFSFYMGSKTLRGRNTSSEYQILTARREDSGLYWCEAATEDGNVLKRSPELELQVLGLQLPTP

recombinant human CD32a (human), sequence (P12318 34-217): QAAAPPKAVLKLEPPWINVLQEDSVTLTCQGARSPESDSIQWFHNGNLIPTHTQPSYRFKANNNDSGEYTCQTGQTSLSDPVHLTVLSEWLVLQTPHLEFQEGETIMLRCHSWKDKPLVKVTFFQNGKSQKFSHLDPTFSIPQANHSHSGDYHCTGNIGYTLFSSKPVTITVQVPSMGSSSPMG
human C1q (human), sequence (P02745 23-245 limits assumed, chain 1 of 3): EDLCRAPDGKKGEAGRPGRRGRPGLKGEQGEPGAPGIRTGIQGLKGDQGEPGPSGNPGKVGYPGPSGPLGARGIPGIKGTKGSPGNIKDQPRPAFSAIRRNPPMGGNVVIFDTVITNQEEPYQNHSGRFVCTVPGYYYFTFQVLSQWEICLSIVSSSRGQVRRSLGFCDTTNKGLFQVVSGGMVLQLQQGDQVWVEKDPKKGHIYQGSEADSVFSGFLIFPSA
human C1q (human), sequence (P02746 28-253 limits assumed, chain 2 of 3, further chain): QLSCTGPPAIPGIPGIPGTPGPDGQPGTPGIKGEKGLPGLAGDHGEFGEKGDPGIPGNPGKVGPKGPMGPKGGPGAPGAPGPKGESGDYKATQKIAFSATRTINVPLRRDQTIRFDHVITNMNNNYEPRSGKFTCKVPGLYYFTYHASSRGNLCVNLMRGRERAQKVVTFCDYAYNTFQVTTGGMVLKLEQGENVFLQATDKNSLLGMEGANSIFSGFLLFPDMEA
human C1q (human), sequence (P02747 29-245 limits assumed, chain 3 of 3, further chain): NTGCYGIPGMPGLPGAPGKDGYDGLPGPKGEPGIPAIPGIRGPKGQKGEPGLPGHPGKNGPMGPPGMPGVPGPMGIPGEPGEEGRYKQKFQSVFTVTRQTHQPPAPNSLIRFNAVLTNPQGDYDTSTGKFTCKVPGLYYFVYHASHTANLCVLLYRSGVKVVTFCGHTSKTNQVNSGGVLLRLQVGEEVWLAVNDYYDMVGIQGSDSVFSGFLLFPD
recombinant human CD16a (human), sequence (P08637 17-208 limits assumed): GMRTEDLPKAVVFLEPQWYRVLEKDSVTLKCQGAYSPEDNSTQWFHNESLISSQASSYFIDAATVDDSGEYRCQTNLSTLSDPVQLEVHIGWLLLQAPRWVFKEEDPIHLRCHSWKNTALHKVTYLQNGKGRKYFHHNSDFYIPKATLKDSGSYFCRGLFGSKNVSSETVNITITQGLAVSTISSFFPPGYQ

isotype mAb with human IgG1 (antibody) gave an EC50 (human C1q (human)) of 14.1 nM, an EC50 [1] of 14 nM and an EC50 [2] of 3.7 nM. The EC50 [3] was 0.12 nM.
